Results reported in patent publication US20200062863A1 (CSL BEHRING, published 2020).

Experiments:
human Factor XII = target: T1, human Factor XII (human, UniProt P00748 20-615); test: SPR (Biacore), purified IgG captured on anti-human IgG, FXII 0-500 nM, 1:1 fit, 25 C
T1 construct: Zymogen bought from Enzyme Research Laboratories; also called FXII
T1 sequence: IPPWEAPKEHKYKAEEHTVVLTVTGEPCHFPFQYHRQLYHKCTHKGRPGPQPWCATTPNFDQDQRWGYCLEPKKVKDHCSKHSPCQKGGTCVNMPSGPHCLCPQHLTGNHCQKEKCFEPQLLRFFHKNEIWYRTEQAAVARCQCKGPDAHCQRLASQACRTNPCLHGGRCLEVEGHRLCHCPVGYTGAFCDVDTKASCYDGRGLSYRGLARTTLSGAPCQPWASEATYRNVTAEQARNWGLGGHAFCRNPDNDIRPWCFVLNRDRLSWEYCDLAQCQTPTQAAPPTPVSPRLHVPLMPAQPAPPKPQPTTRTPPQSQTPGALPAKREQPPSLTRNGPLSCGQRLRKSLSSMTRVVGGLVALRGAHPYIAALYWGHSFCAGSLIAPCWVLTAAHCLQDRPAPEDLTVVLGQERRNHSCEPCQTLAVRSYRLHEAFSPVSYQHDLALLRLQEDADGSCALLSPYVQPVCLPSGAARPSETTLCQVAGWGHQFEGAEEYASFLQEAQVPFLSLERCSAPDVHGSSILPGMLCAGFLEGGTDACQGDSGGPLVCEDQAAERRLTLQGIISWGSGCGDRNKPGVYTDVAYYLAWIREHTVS

N376D = target: T2, N376D; test: Western blot of culture supernatant (non-reducing SDS-PAGE) probed with 3F7 mAb, anti-human IgG-FITC
T2 construct: also called Mu-FXII N376D mutant with C-terminal 8xHis-tag; mutant a)
T2 single chain: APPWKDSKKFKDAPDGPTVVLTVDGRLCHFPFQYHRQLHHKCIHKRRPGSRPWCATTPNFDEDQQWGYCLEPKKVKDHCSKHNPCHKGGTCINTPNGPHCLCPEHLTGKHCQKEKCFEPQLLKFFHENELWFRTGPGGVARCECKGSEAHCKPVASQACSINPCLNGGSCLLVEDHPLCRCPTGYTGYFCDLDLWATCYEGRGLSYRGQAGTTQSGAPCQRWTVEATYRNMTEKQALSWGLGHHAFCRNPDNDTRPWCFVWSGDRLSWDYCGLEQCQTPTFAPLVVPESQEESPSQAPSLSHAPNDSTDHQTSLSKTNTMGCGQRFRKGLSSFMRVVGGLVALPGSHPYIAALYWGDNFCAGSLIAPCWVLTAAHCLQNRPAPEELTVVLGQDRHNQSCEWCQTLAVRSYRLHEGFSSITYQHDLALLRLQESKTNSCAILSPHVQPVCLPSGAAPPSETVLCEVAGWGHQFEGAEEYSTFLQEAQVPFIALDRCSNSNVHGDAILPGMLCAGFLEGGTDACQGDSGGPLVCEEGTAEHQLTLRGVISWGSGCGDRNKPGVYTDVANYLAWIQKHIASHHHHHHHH

B1: monoclonal antibody 3F7 (fully human IgG4/lambda) (antibody, V domains shown)
VH: EVQLLESGGGLVQPGGSLRLSCAASGFTFSKYIMQWVRQAPGKGLEWVSGIRPSGGTTVYADSVKGRFTISRDNSKNTLYLQMNSLRAEDTAVYYCARALPRSGYLISPHYYYYALDVWGQGTTVTVSS
VL: QSELTQPPSASGTPGQRVTISCSGSSSNIGRNYVYWYQQVPGTAPKLLIYSNNQRPSGVPDRFSGSKSGTSASLVISGLRSEDEADYYCAAWDASLRGVFGGGTKLTVLG
notes: also called 3F7 mAb; MAb 3F7
For B1, the Kd (human Factor XII) was 121 nM and the binding result (N376D) was “binds”.
